Molecular target: T1, bovine cyclin A2 residues 169-430 (bovine, UniProt P30274 169-430)
T1 construct: cyclin A2, bovine, residues 169-430 of UniProt P30274 (equivalent to human cyclin A residues 171-432, UniProt P20248)
Test: cryo-EM structure; purified pY15pT160CDK2, cyclin A and CDC25A(C431S) mixed 1:1.5:2, 1 hr on ice, gel filtration (Superdex S200) in 40 mM HEPES, 200 mM NaCl, 1 mM DTT, pH 7.4; grids with CHAPS; 2.7 Å
Conditions: both partners purified

T1 sequence (P30274 169-430): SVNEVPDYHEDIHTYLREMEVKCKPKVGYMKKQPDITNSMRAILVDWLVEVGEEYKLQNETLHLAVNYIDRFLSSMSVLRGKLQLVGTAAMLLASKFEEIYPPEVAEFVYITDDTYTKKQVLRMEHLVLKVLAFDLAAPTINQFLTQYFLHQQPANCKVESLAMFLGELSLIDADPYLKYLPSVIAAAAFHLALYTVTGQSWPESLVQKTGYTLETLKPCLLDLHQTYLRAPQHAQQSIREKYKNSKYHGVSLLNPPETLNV

binding result: binds
B1: human CDC25A residues 335-524 (catalytic domain and C-terminal tail), Cys431Ser (domain or fragment, UniProt P30304 335-524, looked up)
chain: RDLIGDFSKGYLFHTVAGKHQDLKYISPEIMASVLNGKFANLIKEFVIIDCRYPYEYEGGHIKGAVNLHMEEEVEDFLLKKPIVPTDGKRVIVVFHSEFSSERGPRMCRYVRERDRLGNEYPKLHYPELYVLKGGYKEFFMKCQSYCEPPSYRPMHHEDFKEDLKKFRTKSRTWAGEKSKREMYSRLKKL
notes: Form used for cryo-EM and HDX-MS; also called CDC25A(C431S); CDC25A(Cys431Ser)
